The source of these data is the supplement of paper PMC6757056.

B1: library; a variant is named by its letters at N, in order (parent)
chain: GCUGUCACCGAGAAACUGUGAAGUAUAUCUUAAACCUGGGCACUUAAAAGAUAUAUGGAGUUAGUAGUGCAACCUGCUCGGUCUGAUGAGUCCNNNNNNGGACGAAACAGC

Data set [1] covers variants of B1. Put plainly: FACS-Seq fitted mean relative fluorescence mCherry/BFP without ligand (log10 relative fluorescence); HEK293T; ligand: cyclic di-GMP (c-di-GMP-II aptamer); higher = higher reporter protein expression. The settings on record: ligand present: no. On the procedure:
(§1)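 Hammerhead (sTRSV) ribozyme switch libraries with a ligand aptamer grafted on stem I and a randomized N4-6 loop II, cloned into the 3' UTR of mCherry and transiently transfected into HEK293T cells; RNA-Seq 72 h post transfection with ligand added 1 h before transfection; RNA read count / plasmid DNA read count normalized to the non-cleaving sTRSVctl (x100), log10; sequences with >100 DNA reads. FACS-Seq: lentiviral library sorted into 6 bins after 48 h ligand, log-normal fit mean of mCherry/BFP scaled to controls. Printed sequences are partial switch sequences.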

The variants in data set [2] derive from B1. In words: normalized RNA/DNA level without ligand (relative to sTRSVctl = 100) (log10 (% of sTRSVctl)); HEK293T; ligand: cyclic di-GMP (c-di-GMP-II aptamer); higher = less ribozyme self-cleavage, higher mRNA level. The settings on record: reporter: mCherry (pCS4076), ligand present: no. On the procedure: as §1
In data set [3] the parent is B1. Put plainly: FACS-Seq fitted mean relative fluorescence mCherry/BFP with ligand (log10 relative fluorescence); HEK293T; ligand: cyclic di-GMP (c-di-GMP-II aptamer); ligand concentration (+) FACS-Seq: 1 mM; higher = higher reporter protein expression. The settings on record: ligand present: yes. On the procedure:
as §1

The variants in data set [4] derive from B1. Put plainly: normalized RNA/DNA level with ligand (relative to sTRSVctl = 100) (log10 (% of sTRSVctl)); HEK293T; ligand: cyclic di-GMP (c-di-GMP-II aptamer); ligand concentration (+) RNA-Seq: 1 mM; higher = less ribozyme self-cleavage, higher mRNA level. The settings on record: reporter: mCherry (pCS4076), ligand present: yes. Here is the method: as §1

± gives the standard deviation of the averaged measurements.

Consider GCUGUCACCGAGAAACUGUGAAGUAUAUCUUAAACCUGGGCACUUAAAAGAUAUAUGGAGUUAGUAGUGCAACCUGCUCGGUCUGAUGAGUCCGAAAAUGGACGAAACAGC, for which the “FACS-Seq fitted mean (log10)” value in data set [1] was -0.15 ± 0.048; in data set [3] it was 0.162 ± 0.015. The “normalized RNA/DNA level without ligand (log10)” value in data set [2] is 1.55 ± 0.048. The “normalized RNA/DNA level with ligand (log10)” value in data set [4] worked out at 1.74 ± 0.1.
GCUGUCACCGAGAAACUGUGAAGUAUAUCUUAAACCUGGGCACUUAAAAGAUAUAUGGAGUUAGUAGUGCAACCUGCUCGGUCUGAUGAGUCCGAAACAGGACGAAACAGC: the “FACS-Seq fitted mean (log10)” value in data set [1] was -0.441 ± 0.093; in data set [3] it was -0.185 ± 0.018. Also, in data set [2], the “normalized RNA/DNA level without ligand (log10)” value is 1.61 ± 0.023. For the same variant, in data set [4], the “normalized RNA/DNA level with ligand (log10)” value stood at 1.73 ± 0.1.
With GCUGUCACCGAGAAACUGUGAAGUAUAUCUUAAACCUGGGCACUUAAAAGAUAUAUGGAGUUAGUAGUGCAACCUGCUCGGUCUGAUGAGUCCCAAACAGGACGAAACAGC, the “FACS-Seq fitted mean (log10)” value in data set [1] is -0.651 ± 0.025; in data set [3], -0.439 ± 0.079. For the same variant, the “normalized RNA/DNA level without ligand (log10)” value in data set [2] is 1.34 ± 0.069. Also, the “normalized RNA/DNA level with ligand (log10)” value in data set [4] is 1.62 ± 0.11.
As to GCUGUCACCGAGAAACUGUGAAGUAUAUCUUAAACCUGGGCACUUAAAAGAUAUAUGGAGUUAGUAGUGCAACCUGCUCGGUCUGAUGAGUCCGAAAGUGGACGAAACAGC, the “FACS-Seq fitted mean (log10)” value in data set [1] is -0.387 ± 0.03; in data set [3] it was -0.0693 ± 0.089. Also, the “normalized RNA/DNA level without ligand (log10)” value in data set [2] amounted to 1.55 ± 0.044. In data set [4], the “normalized RNA/DNA level with ligand (log10)” value worked out at 1.71 ± 0.095.
For the variant GCUGUCACCGAGAAACUGUGAAGUAUAUCUUAAACCUGGGCACUUAAAAGAUAUAUGGAGUUAGUAGUGCAACCUGCUCGGUCUGAUGAGUCCGAAAGAGGACGAAACAGC, the entries for the “FACS-Seq fitted mean (log10)” value in data set [1] and in data set [3] were -0.392 ± 0.037 and -0.0161 ± 0.058, respectively. Moreover, in data set [2], the “normalized RNA/DNA level without ligand (log10)” value came out at 1.41 ± 0.11. For the same variant, in data set [4], the “normalized RNA/DNA level with ligand (log10)” value was 1.57 ± 0.11.
Consider GCUGUCACCGAGAAACUGUGAAGUAUAUCUUAAACCUGGGCACUUAAAAGAUAUAUGGAGUUAGUAGUGCAACCUGCUCGGUCUGAUGAGUCCAAAAGGGGACGAAACAGC, for which the figures for the “FACS-Seq fitted mean (log10)” value in data set [1] and in data set [3] were -0.489 ± 0.057 and -0.254 ± 0.005, respectively. Besides, in data set [2], the “normalized RNA/DNA level without ligand (log10)” value worked out at 1.49 ± 0.12. The “normalized RNA/DNA level with ligand (log10)” value in data set [4] came to 1.66 ± 0.093.
Consider GCUGUCACCGAGAAACUGUGAAGUAUAUCUUAAACCUGGGCACUUAAAAGAUAUAUGGAGUUAGUAGUGCAACCUGCUCGGUCUGAUGAGUCCAAAAGAGGACGAAACAGC, for which the “FACS-Seq fitted mean (log10)” value in data set [1] is -0.494 ± 0.013; in data set [3], -0.116 ± 0.009. Further, the “normalized RNA/DNA level without ligand (log10)” value in data set [2] came to 1.36 ± 0.073. Also, the “normalized RNA/DNA level with ligand (log10)” value in data set [4] was determined as 1.56 ± 0.14.
Taken in the same sequence, the figures for GCUGUCACCGAGAAACUGUGAAGUAUAUCUUAAACCUGGGCACUUAAAAGAUAUAUGGAGUUAGUAGUGCAACCUGCUCGGUCUGAUGAGUCCAAAAGCGGACGAAACAGC were 0.0679 ± 0.01, 0.227 ± 0.045, 1.58 ± 0.045 and 1.73 ± 0.089.
For GCUGUCACCGAGAAACUGUGAAGUAUAUCUUAAACCUGGGCACUUAAAAGAUAUAUGGAGUUAGUAGUGCAACCUGCUCGGUCUGAUGAGUCCUAAAGAGGACGAAACAGC, the “FACS-Seq fitted mean (log10)” value was -0.0343 ± 0.1 in data set [1] and 0.167 ± 0.024 in data set [3]. Moreover, the “normalized RNA/DNA level without ligand (log10)” value in data set [2] was determined as 1.6 ± 0.047. Besides, the “normalized RNA/DNA level with ligand (log10)” value in data set [4] came out at 1.73 ± 0.12.
Take GCUGUCACCGAGAAACUGUGAAGUAUAUCUUAAACCUGGGCACUUAAAAGAUAUAUGGAGUUAGUAGUGCAACCUGCUCGGUCUGAUGAGUCCCAAAGUGGACGAAACAGC: the “FACS-Seq fitted mean (log10)” value came out at 0.000886 ± 0.21 in data set [1] and 0.204 ± 0.087 in data set [3]. Moreover, in data set [2], the “normalized RNA/DNA level without ligand (log10)” value amounted to 1.7 ± 0.032. The “normalized RNA/DNA level with ligand (log10)” value in data set [4] amounted to 1.79 ± 0.12.
On to GCUGUCACCGAGAAACUGUGAAGUAUAUCUUAAACCUGGGCACUUAAAAGAUAUAUGGAGUUAGUAGUGCAACCUGCUCGGUCUGAUGAGUCCCAAAGAGGACGAAACAGC, for which the “FACS-Seq fitted mean (log10)” value was -0.231 ± 0.15 in data set [1] and 0.00425 ± 0.022 in data set [3]. The “normalized RNA/DNA level without ligand (log10)” value in data set [2] was 1.47 ± 0.074. Moreover, the “normalized RNA/DNA level with ligand (log10)” value in data set [4] is 1.68 ± 0.1.
On to GCUGUCACCGAGAAACUGUGAAGUAUAUCUUAAACCUGGGCACUUAAAAGAUAUAUGGAGUUAGUAGUGCAACCUGCUCGGUCUGAUGAGUCCAAAACGGGACGAAACAGC, for which the “FACS-Seq fitted mean (log10)” value in data set [1] was -0.442 ± 0.098; in data set [3], -0.105 ± 0.12. In data set [2], the “normalized RNA/DNA level without ligand (log10)” value worked out at 1.5 ± 0.072. Besides, in data set [4], the “normalized RNA/DNA level with ligand (log10)” value was found to be 1.71 ± 0.079.
On to GCUGUCACCGAGAAACUGUGAAGUAUAUCUUAAACCUGGGCACUUAAAAGAUAUAUGGAGUUAGUAGUGCAACCUGCUCGGUCUGAUGAGUCCUAAACAGGACGAAACAGC, for which the “FACS-Seq fitted mean (log10)” value in data set [1] was found to be 0.0579 ± 0.081; in data set [3] it was 0.349 ± 0.078. For the same variant, the “normalized RNA/DNA level without ligand (log10)” value in data set [2] was determined as 1.742 ± 0.0053. Moreover, in data set [4], the “normalized RNA/DNA level with ligand (log10)” value stood at 1.85 ± 0.079.
